Assay [1] deals with T1, human VLA4-Fc (alpha4-Fc/beta1-Fc heterodimer) (human).
T1 construct: Soluble heterodimer from CHO cells, Protein A purified; also called VLA-Fc
Put plainly: SPR (BIACORE), retest with new polypeptide preparations and new VLA4-Fc; retested with new polypeptide preparations and new VLA-Fc ligand (Table 5B). The method, then: The kinetic 2D-VCAM-1 assay measures binding kinetics of a dimeric ligand (e.g., VLA-Fc fusion protein or LPAM-1-Fc fusion protein) coated to sensor chips and monomeric analyte (e.g., 2D-VCAM-1 variant polypeptides) in the mobile phase. Goat anti-human IgG antibody (Jackson ImmunoResearch, Catalog No. 105-005-098) was immobilized on CM-5 sensor chips (GE Healthcare, Catalog No. BR-1000-14) according to the manufacturer's protocol. Antibody was diluted to 30 μg/ml in immobilization buffer (10 mM sodium acetate, pH 5.0 (GE Healthcare, Catalog No. BR-1003-51)). […] Un-reacted sites were quenched with 35 μl of 1 M ethanolamine-HCl pH 8.5 (GE Healthcare, Catalog No. BR-1000-50). This procedure typically yielded 15,000 response units (RU) of coupled antibody. VLA4-Fc or LPAM-1-Fc, prepared as described in Examples 3 and 4, respectively, were bound to antibody-coated sensor chips by injection of 20 μl of ligand solution (20 μg/ml protein in HBS-P-Mn buffer at a flow rate of 10 μl/min). Ligand capture levels were typically 200-300 RU. […] Typically, 8 dilutions of 2D-VCAM-1 variant polypeptides ranging from 150 nM to 0.069 nM were analyzed against a blank reference (HBS-P-Mn buffer alone).
(SPR reads the build-up and loss of mass on a sensor chip optically.)

The target in assay [2] is T1, human VLA4-Fc (alpha4-Fc/beta1-Fc …). Put plainly: SPR (BIACORE), VLA4-Fc captured by anti-human IgG, 1 mM MnCl2, 1:1 Langmuir; standard BIACORE assay, first preparation (Table 5A); activated VLA4 (Mn2+). The method, then:
All BIACORE analyses were performed on a BIACORE 2000 system or BIACORE 3000 system (GE Healthcare) at room temperature (RT, 25° C.), HBS-P buffer (10 mM Hepes (pH 7.4), 150 mM NaCl, 0.005% surfactant P20) supplemented with 1 mM MnCl₂ (HBS-P-Mn) was used as the flow buffer for all experiments except where indicated.
The kinetic 2D-VCAM-1 assay measures binding kinetics of a dimeric ligand (e.g., VLA-Fc fusion protein or LPAM-1-Fc fusion protein) coated to sensor chips and monomeric analyte (e.g., 2D-VCAM-1 variant polypeptides) in the mobile phase. Goat anti-human IgG antibody (Jackson ImmunoResearch, Catalog No. 105-005-098) was immobilized on CM-5 sensor chips (GE Healthcare, Catalog No. BR-1000-14) according to the manufacturer's protocol. Antibody was diluted to 30 μg/ml in immobilization buffer (10 mM sodium acetate, pH 5.0 (GE Healthcare, Catalog No. BR-1003-51)). […] Un-reacted sites were quenched with 35 μl of 1 M ethanolamine-HCl pH 8.5 (GE Healthcare, Catalog No. BR-1000-50). This procedure typically yielded 15,000 response units (RU) of coupled antibody. VLA4-Fc or LPAM-1-Fc, prepared as described in Examples 3 and 4, respectively, were bound to antibody-coated sensor chips by injection of 20 μl of ligand solution (20 μg/ml protein in HBS-P-Mn buffer at a flow rate of 10 μl/min). Ligand capture levels were typically 200-300 RU. […]

Experimental findings from US20120135912A1 (PERSEID THERAPEUTICS, published 2012) are described below.

T1 sequence (chain, as listed by the source limits assumed, form in doubt, chain 1 of 2): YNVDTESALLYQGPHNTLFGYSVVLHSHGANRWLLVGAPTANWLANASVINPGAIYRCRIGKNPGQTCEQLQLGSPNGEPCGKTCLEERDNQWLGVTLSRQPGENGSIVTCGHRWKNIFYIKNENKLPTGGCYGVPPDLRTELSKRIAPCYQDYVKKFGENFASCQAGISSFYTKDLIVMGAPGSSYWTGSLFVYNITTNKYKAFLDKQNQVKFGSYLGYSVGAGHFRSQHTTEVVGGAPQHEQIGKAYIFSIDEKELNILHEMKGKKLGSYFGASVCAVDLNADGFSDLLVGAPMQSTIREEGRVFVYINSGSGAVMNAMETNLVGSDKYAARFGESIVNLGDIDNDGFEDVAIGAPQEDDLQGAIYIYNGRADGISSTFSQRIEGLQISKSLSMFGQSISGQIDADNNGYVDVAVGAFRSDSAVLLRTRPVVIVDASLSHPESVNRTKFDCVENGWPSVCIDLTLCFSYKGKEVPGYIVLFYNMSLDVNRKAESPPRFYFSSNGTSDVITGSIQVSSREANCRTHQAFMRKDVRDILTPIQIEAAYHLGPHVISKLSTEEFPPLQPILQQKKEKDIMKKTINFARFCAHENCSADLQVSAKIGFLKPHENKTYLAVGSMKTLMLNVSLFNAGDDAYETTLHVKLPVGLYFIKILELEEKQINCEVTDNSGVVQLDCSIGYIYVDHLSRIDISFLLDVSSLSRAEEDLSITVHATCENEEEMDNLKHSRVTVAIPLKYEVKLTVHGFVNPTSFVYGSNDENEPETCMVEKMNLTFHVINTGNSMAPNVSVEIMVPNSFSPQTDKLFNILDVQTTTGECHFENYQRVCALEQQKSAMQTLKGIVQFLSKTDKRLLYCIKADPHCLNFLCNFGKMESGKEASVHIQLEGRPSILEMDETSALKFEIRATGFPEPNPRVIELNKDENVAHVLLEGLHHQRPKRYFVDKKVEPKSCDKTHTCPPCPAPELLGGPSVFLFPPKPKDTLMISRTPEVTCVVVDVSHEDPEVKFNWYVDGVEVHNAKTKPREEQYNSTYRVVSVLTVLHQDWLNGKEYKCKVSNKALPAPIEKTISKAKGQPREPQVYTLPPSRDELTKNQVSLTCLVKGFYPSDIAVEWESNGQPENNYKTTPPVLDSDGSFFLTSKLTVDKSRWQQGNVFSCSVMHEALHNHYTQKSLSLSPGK
T1 sequence (chain, as listed by the source limits assumed, form in doubt, chain 2 of 2): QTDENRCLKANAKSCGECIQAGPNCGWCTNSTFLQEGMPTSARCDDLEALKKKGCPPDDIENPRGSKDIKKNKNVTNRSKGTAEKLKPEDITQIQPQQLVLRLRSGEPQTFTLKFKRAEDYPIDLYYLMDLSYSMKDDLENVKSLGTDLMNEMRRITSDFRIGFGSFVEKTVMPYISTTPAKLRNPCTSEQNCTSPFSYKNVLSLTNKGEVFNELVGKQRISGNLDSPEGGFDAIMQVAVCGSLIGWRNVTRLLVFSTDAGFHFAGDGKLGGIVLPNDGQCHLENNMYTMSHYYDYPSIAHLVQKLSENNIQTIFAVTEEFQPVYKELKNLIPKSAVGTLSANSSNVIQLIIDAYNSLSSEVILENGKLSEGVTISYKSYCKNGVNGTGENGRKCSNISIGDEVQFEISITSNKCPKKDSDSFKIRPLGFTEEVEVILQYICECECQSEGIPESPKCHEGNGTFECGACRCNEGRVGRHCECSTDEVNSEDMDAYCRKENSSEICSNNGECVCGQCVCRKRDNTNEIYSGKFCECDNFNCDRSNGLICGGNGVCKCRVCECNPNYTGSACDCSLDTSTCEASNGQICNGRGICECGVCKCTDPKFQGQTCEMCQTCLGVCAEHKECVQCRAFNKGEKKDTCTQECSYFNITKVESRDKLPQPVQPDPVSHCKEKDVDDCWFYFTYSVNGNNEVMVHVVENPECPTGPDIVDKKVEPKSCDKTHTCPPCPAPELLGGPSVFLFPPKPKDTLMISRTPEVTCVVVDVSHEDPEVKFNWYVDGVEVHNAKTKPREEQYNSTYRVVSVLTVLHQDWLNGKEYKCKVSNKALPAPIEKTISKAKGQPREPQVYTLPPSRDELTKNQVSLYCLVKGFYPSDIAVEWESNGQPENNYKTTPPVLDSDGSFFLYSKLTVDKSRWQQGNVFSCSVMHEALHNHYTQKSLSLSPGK

B1: 2D-VCAM-1 variant Clone 146 (ligand, not shown: small tags and cut ends)
chain: FKIETTPESRYLAQIGDSVSLTCSTTGCESPLFFWRPLLDSPLNGKVTNEGTTSTLTMNPVSFGNEHSYLCTARCESRSLEKGIQVEIYSFPKDPEIHLSGPLEAGKPITVKCSVADVYPFDRLEIDLLKGDHLMKSQEFLEDADRKSLETKSLEVTFTPVIEDIGKVLVCRAKLHIDEMDSVPTVRQAVKELQVYISP
On to B1, for which the results for the equilibrium dissociation constant (Kd) in assay [1] and in assay [2] were 0.018 nM and 0.0497 nM, respectively.
